From patent publication US20150344570A1 (published 2015)
Numbering of substitutions follows the chain as printed. Numbers in names are those of the source. Like-named read-outs stand apart in the source and are kept apart here. Blank lines part the entries; values can stand above or below the binder they belong to.

Assays:
[1] = target: FcγRIIIa extracellular domain with C-terminal His tag (human, UniProt P08637 17-208); experiment: SPR (Biacore), relative binding activity; GpH7-A5/GpH7-B3/GpL16-k0 = 100
[2] = target: T1, FcγRIIa R extracellular domain with C-terminal His tag (human, UniProt P12318 34-217); experiment: SPR (Biacore); ratio KD for FcγRIIb / KD for FcγRIIa R
T1 construct: extracellular domain; Soluble receptor, R131 allotype; also called FcgRIIa R; FcgRIIaR; not shown: His tag at the C terminus
T1 sequence (looked up): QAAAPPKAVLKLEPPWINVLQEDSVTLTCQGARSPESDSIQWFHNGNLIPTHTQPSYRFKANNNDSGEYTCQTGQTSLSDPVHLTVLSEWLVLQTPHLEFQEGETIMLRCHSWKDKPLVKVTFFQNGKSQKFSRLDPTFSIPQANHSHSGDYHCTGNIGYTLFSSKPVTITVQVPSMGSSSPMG
Description: (§1) These antibodies were assessed for the binding activity to each FcγR according to the method described in Reference Example 2.
(§2) Analysis of interaction between objective antibody and the FcγR was carried out using Biacore T100 (GE Healthcare). HBS-EP+ (GE Healthcare) was used as the running buffer, and the measurement temperature was set to 25° C. Chips produced by immobilizing the antigen peptide by the amine coupling method to a Series S Sencor Chip CM5 (GE Healthcare), or alternatively, chips produced by allowing preliminarily biotinylated antigen peptides to interact with and immobilize onto a Series S Sensor Chip SA (certified) (GE Healthcare) were used. Antibodies of interest were captured onto an antigen peptide-immobilized chip, and allowed to interact to each FcγR diluted with running buffer. To regenerate and repeatedly use the chip, the antibodies captured on the chip were washed off by reacting 10 mM glycine-HCl, pH 1.5.

[3] = target: T2, FcγRIIa H extracellular domain with C-terminal His tag (human, UniProt P12318 34-217); experiment: SPR (Biacore); ratio KD for FcγRIIb / KD for FcγRIIa H
T2 construct: extracellular domain; Soluble receptor, H131 allotype; also called FcgRIIa H; FcgRIIaH; not shown: His tag at the C terminus
T2 sequence (looked up): T1 sequence (looked up) with R134H
Description: as §1, §2

[4] = target: T3, FcgRIIIa V type extracellular domain, C-terminal His tag (human, UniProt P08637 17-208); experiment: SPR (Biacore); KD of H240-Kn120/H240-Hl068/L73-k0 divided by KD of the variant
T3 construct: extracellular domain; Soluble analyte in Biacore; also called FcγRIIIa V; not shown: His tag at the C terminus
Description: (§3) Analysis of interaction between objective antibody and the FcγR was carried out using Biacore T100 (GE Healthcare), Biacore T200, Biacore A100, and Biacore 4000. HBS-EP+ (GE Healthcare) was used as the running buffer, and the measurement temperature was set to 25° C. Chips produced by immobilizing the antigen peptide by the amine coupling method to a Series S sensor Chip CM5 (GE Healthcare), chips produced by allowing preliminarily biotinylated antigen peptides to interact with and immobilize onto a Series S Sensor Chip SA (certified) (GE Healthcare), chips produced by immobilizing Protein L (ACTIGEN, BioVision) to Series S Sencor Chip CM5 (GE Healthcare), or chips produced by immobilizing Protein A/G (Thermo Scientific) to Series S Sencor Chip CM5 (GE Healthcare) were used. Antibodies of interest were captured onto these chips, and allowed to interact to each FcγR diluted with running buffer. To regenerate and repeatedly use the chip, the antibodies captured onto the chip were washed off by reacting 10 mM glycine-HCl, pH 1.5.

[5] = target: T4, FcgRIIb extracellular domain, C-terminal His tag (human, UniProt P31994 43-217); experiment: as above
T4 construct: extracellular domain; Soluble analyte in Biacore; also called FcγRIIb; not shown: His tag at the C terminus
T4 sequence (looked up): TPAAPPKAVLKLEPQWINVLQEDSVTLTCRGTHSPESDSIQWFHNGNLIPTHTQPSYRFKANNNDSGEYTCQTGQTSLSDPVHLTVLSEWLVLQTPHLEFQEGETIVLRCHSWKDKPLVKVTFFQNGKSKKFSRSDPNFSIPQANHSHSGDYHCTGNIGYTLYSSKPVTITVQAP
Description: as §3

[6] = target: T5, FcgRIIa R type extracellular domain, C-terminal His tag (human, UniProt P12318 34-217); experiment: as above
T5 construct: extracellular domain; Soluble analyte in Biacore; also called FcγRIIa R; FcγRIIa(R); not shown: His tag at the C terminus
T5 sequence (looked up): T1 sequence (looked up)
Description: as §3

[7] = target: T6, FcgRIIIa F type extracellular domain, C-terminal His tag (human, UniProt P08637 17-208); experiment: as above
T6 construct: extracellular domain; Soluble analyte in Biacore; also called FcγRIIIa F; not shown: His tag at the C terminus
Description: as §3

[8] = target: T7, FcgRIIa H type extracellular domain, C-terminal His tag (human, UniProt P12318 34-217); experiment: as above
T7 construct: extracellular domain; Soluble analyte in Biacore; also called FcγRIIa H; FcγRIIa(H); not shown: His tag at the C terminus
T7 sequence (looked up): T1 sequence (looked up) with R134H
Description: as §3

[9] = target: T3, FcgRIIIa V type extracellular domain, …; experiment: as above; remark: listed apart in the source
[10] = target: T4, FcgRIIb extracellular domain, …; experiment: as above; remark: listed apart in the source
[11] = target: T5, FcgRIIa R type extracellular domain, …; experiment: as above; remark: listed apart in the source
[12] = target: T6, FcgRIIIa F type extracellular domain, …; experiment: as above; remark: listed apart in the source
[13] = target: T7, FcgRIIa H type extracellular domain, …; experiment: as above; remark: listed apart in the source

T3 sequence (P08637 17-208 F176V): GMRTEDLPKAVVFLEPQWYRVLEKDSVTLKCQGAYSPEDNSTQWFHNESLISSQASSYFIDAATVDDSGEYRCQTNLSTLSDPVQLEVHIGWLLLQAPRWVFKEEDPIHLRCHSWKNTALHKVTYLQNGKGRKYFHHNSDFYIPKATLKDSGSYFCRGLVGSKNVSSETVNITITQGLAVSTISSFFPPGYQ
T6 sequence (P08637 17-208): as the sequence (P08637 17-208 F176V) above, with V160F counted along it
Chain of FcγRIIIa extracellular domain with C-terminal His tag (P08637 17-208): as the sequence (P08637 17-208 F176V) above, with V160F counted along it

B4: GpH7-Kn033/GpH7-Hl033/GpL16-k0 (antibody, human IgG1, kappa)
heavy 1: not shown
heavy 2: not shown
light: DIVMTQSPLSLPVTPGEPASISCQASESLVHSNRNTYLHWYLQKPGQSPQLLIYKVSNRFSGVPDRFSGSGSGTDFTLKISRVEAEDVGVYYCSQNTHVPPTFGQGTKVEIERTVAAPSVFIFPPSDEQLKSGTASVVCLLNNFYPREAKVQWKVDNALQSGNSQESVTEQDSKDSTYSLSSTLTLSKADYEKHKVYACEVTHQGLSSPVTKSFNRGEC
notes: Anti-glypican-3 IgG1 (G1d, C-terminal Gly-Lys removed) with knobs-into-holes alterations only; also called Kn033/Hl033
A/I ratio [2]: 4.9 | A/I ratio [3]: 6.2

B5: GpH7-A48/GpH7-B3-15-02A/GpL16-k0 (antibody, human IgG1, kappa)
heavy 1: QVQLVQSGAEVKKPGASVTVSCKASGYTFTDYEMHWIRQPPGEGLEWIGAIDPKTGDTAYSESFQDRVTLTADKSTSTAYMELSSLTSEDTAVYYCTRFYSYTYWGQGTLVTVSSASTKGPSVFPLAPSSKSTSGGTAALGCLVKDYFPEPVTVSWNSGALTSGVHTFPAVLQSSGLYSLSSVVTVPSSSLGTQTYICNVNHKPSNTKVDKKVEPKSCDKTHTCPPCPAPELLGGPSVFLFPPKPKDTLMISRTPEVTCVVVDVSHEDPEVKFNWYVDGVEVHNAKTKPREEQYNSTYRVVSVLTVLHQDWLNGKEYKCKVSNKALRAPIEKTISKAKGQPREPQVYTLPPSRKELTKNQVSLTCLVKGFYPSDIAVEWESNGQPENNYKTTPPVLDSDGSFFLYSKLTVDKSRWQQGNVFSCSVMHEALHNRYTQKSLSLSP
heavy 2: not shown
light: B4 light
notes: H1 P329R; H2 S298A
FcγRIIIa BINDING ACTIVITY [1]: 47%

B6: GpH7-A48/GpH7-B3-03-20W/GpL16-k0 (antibody, human IgG1, kappa)
heavy 1: B5 heavy 1
heavy 2: not shown
light: B4 light
notes: H1 P329R; H2 G236W
FcγRIIIa BINDING ACTIVITY [1]: 13%

B7: GpH7-A5/GpH7-HA5/GpL16-k0 (antibody, human IgG1, kappa)
heavy 1: not shown
heavy 2: B5 heavy 1 with L232Y, K354D, R433H, K437E
light: B4 light
notes: H2 L234Y and P329R
FcγRIIIa BINDING ACTIVITY [1]: 60%

Other lines, results leading:

FcγRIIIa BINDING ACTIVITY [1]: 11%
B1: GpH7-A48/GpH7-B3-01-15Y/GpL16-k0 (antibody, human IgG1, kappa)
heavy 1: B5 heavy 1
heavy 2: not shown
light: B4 light
notes: H1 P329R; H2 L234Y

FcγRIIIa BINDING ACTIVITY [1]: 56%
B2: GpH7-A5/GpH7-HA6/GpL16-k0 (antibody, human IgG1, kappa)
heavy 1: not shown
heavy 2: B5 heavy 1 with G234W, K354D, R433H, K437E
light: B4 light
notes: H2 G236W and P329R

FcγRIIIa BINDING ACTIVITY [1]: 84%
B3: GpH7-A5/GpH7-HA11/GpL16-k0 (antibody, human IgG1, kappa)
heavy 1: not shown
heavy 2: B5 heavy 1 with S296A, K354D, R433H, K437E
light: B4 light
notes: H2 S298A and P329R

relative KD [4]: 0.4 | relative KD [5]: 0.6 | relative KD [6]: 0.8 | relative KD [7]: 0.5 | relative KD [8]: 1 | relative KD [9]: 0.4 | relative KD [10]: 0.6 | relative KD [11]: 0.8 | relative KD [12]: 0.5 | relative KD [13]: 1
B8: H240-Kn179/H240-Hl068/L73-k0 (antibody, human IgG1, kappa)
heavy 1: QDQLVQSGAEVKKPGASVKVSCKASGFNIKDTYIQWVRQAPGQGLEWMGRIDPLRKQTKYREKFEGRVTITADTSTNTAYMELSSLRSEDTAVYYCVRSGREFDYWGQGTLVTVSSASTKGPSVFPLAPSSKSTSGGTAALGCLVKDYFPEPVTVSWNSGALTSGVHTFPAVLQSSGLYSLSSVVTVPSSSLGTQTYICNVNHKPSNTKVDKKVEPKSCDKTHTCPPCPAPEYYWGPMVFLFPPKPKDTLMISRTPEVTCVVVDVSDEDPEVKFNWYVDGVEVHNAKTKPREKQYNATYRVVSVLTVLHQDWLNGKEYKCKVSNKDLPAPIEKTISKAKGQPREPQVCTLPPSRDELTKNQVSLWCLVKGFYPSDIAVEWESNGQPENNYKTTPPVLDSDGSFFLYSKLTVDKSRWQQGNVFSCSVMHEALHNHYTQKSLSLSP
heavy 2: QDQLVQSGAEVKKPGASVKVSCKASGFNIKDTYIQWVRQAPGQGLEWMGRIDPLRKQTKYREKFEGRVTITADTSTNTAYMELSSLRSEDTAVYYCVRSGREFDYWGQGTLVTVSSASTKGPSVFPLAPSSKSTSGGTAALGCLVKDYFPEPVTVSWNSGALTSGVHTFPAVLQSSGLYSLSSVVTVPSSSLGTQTYICNVNHKPSNTKVDKKVEPKSCDKTHTCPPCPAPELLGGPSVFLFPPKPKDTLMISRTPEVTCVVVDVSHEEPEVKFNWYVDGVEVHNAKTKPREEQYNSTYRVVSVLTVLHQDWLNGKEYKCKVSNDALPKPIEETISKAKGQPREPQVYTLPPSRCELTKNQVSLSCAVKGFYPSDIAVEWESNGQPENNYKTTPPVLDSDGSFFLVSKLTVDKSRWQQGNVFSCSVMHEALHNHYTQKSLSLSP
light: DIQMTQSPSSLSASVGDRVTITCRASQDIHKYIAWYQQKPGQAPRLLIQYTSTLQPGVPSRFSGSGSGTDYTFTISSLQPEDIATYYCLQYEQLRTFGGGTKVEIKRTVAAPSVFIFPPSDEQLKSGTASVVCLLNNFYPREAKVQWKVDNALQSGNSQESVTEQDSKDSTYSLSSTLTLSKADYEKHKVYACEVTHQGLSSPVTKSFNRGEC
notes: also called H240-Kn179/H240-HI068/L73-k0

relative KD [4]: 0.5 | relative KD [5]: 0.6 | relative KD [6]: 1 | relative KD [7]: 0.7 | relative KD [8]: 1.2 | relative KD [9]: 0.5 | relative KD [10]: 0.6 | relative KD [11]: 1 | relative KD [12]: 0.7 | relative KD [13]: 1.2
B9: H240-Kn180/H240-Hl068/L73-k0 (antibody, human IgG1, kappa)
heavy 1: B8 heavy 1 with K293R
heavy 2: B8 heavy 2
light: B8 light
notes: also called H240-Kn180/H240-HI068/L73-k0
